From publication PMC11873932

Target: Protein Serine Kinase H1 (PSKH1), recombinant full-length, wild type (human) (UniProt P11801)
Sequence (P11801 whole entry): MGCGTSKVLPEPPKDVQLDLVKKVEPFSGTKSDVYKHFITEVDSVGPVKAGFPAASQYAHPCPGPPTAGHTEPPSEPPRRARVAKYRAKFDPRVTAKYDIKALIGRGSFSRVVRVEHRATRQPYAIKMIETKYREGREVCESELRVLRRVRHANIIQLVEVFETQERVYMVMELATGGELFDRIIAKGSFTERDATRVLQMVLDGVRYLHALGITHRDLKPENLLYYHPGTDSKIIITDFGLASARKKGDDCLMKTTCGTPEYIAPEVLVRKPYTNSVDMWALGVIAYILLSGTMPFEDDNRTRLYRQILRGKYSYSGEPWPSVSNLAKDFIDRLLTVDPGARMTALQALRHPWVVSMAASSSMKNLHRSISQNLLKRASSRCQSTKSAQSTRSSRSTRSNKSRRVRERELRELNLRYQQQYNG

What does the source list for “Calmodulin, recombinant (His6-Calmodulin) (from UniProt P0DP23 1-149) (natural protein)”?
half-maximal activation (EC50) of HA-tagged PSKH1 (10 ng) kinase activity, titration of CaM 0-1,000 nM, radiometric assay: 58.7 nM; radiometric kinase assay (ADR1 peptide phosphorylation) of HA-tagged PSKH1 (10 ng) with Ca2+-CaM (1 uM): 10 fold
